One assay concerns the target HLA-B*27:05. As to the kind of experiment: IEDB peptide-MHC binding, purified MHC/competitive/fluorescence; ≥ and ≤ were set here for values at or beyond the usual limits of such assays. Particulars: source organism: hepatitis C virus genotype 1a.
The target in the next assay is HLA-B*58:01. In words: IEDB peptide-MHC binding, purified MHC/direct/fluorescence; filed as Kd, often an IC50 or EC50 that approximates it; ≥ and ≤ were set here for values at or beyond the usual limits of such assays.
The target of another assay is HLA-B*15:17. The assay is described as above. Particulars: source organism: Influenza A virus (A/finch/Canada/NS1301/2001(H3N8)).
Another assay concerns the target HLA-C*15:02. Described as above.
For a further assay, the target named is HLA-B*57:01. The assay is described as above.
A further assay concerns the target HLA-B*45:06. As to the kind of experiment: IEDB peptide-MHC binding, purified MHC/competitive/fluorescence; filed as Kd, often an IC50 or EC50 that approximates it; ≥ and ≤ were set here for values at or beyond the usual limits of such assays.
The next assay concerns the target HLA-A*32:07. The description is as above. Particulars: source organism: Influenza A virus (A/Fort Monmouth/1/1947-mouse adapted(H1N1)).
Another assay deals with HLA-A*32:15. Described as above. As to conditions: source organism: Influenza A virus (A/Fort Monmouth/1/1947-mouse adapted(H1N1)).
Another assay addresses HLA-A*68:23. The assay is described as above. Particulars: source organism: Influenza A virus (A/Fort Monmouth/1/1947-mouse adapted(H1N1)).
A further assay deals with HLA-B*15:42. The assay is described as above.
A further assay concerns the target HLA-B*83:01. Described as above.
The next assay concerns the target HLA-A*02:01. As to the kind of experiment: IEDB peptide-MHC binding, cellular MHC/competitive/fluorescence; ≥ and ≤ were set here for values at or beyond the usual limits of such assays. As to conditions: source organism: Homo sapiens.
The target in the next assay is HLA-B*35:01. The assay is described as above. As to conditions: source organism: Mycobacterium tuberculosis H37Rv.
The target of a further assay is HLA-B*40:01. In words: IEDB peptide-MHC binding, purified MHC/direct/fluorescence; filed as Kd, often an IC50 or EC50 that approximates it; ≥ and ≤ were set here for values at or beyond the usual limits of such assays. Particulars: source organism: Francisella tularensis subsp. tularensis FSC033.
The next assay addresses HLA-A*24:03. The description is as above. Particulars: source organism: Francisella tularensis subsp. tularensis FSC033.
For a further assay, the target named is HLA-B*07:02. The description is as above. Particulars: source organism: Francisella tularensis subsp. tularensis FSC033.
For a further assay, the target named is HLA-A*02:19. The description is as above. Particulars: source organism: Francisella tularensis subsp. tularensis FSC033.
Another assay concerns the target HLA-A*02:50. The description is as above. As to conditions: source organism: Francisella tularensis subsp. tularensis FSC033.
Assay [1] concerns the target HLA-A*29:02. The description is as above. Particulars: source organism: Francisella tularensis subsp. tularensis FSC033.
The target in the next assay is HLA-B*44:02. The assay is described as above. As to conditions: source organism: Francisella tularensis subsp. tularensis FSC033.
The next assay has as its target HLA-A*30:01. The assay is described as above. Particulars: source organism: Francisella tularensis subsp. tularensis FSC033.
A further assay concerns the target HLA-B*51:01. The assay is described as above. Particulars: source organism: Francisella tularensis subsp. tularensis FSC033.
For the next assay, the target named is HLA-A*23:01. The description is as above. Particulars: source organism: Francisella tularensis subsp. tularensis FSC033.
The target of another assay is HLA-B*18:01. Described as above. Particulars: source organism: Francisella tularensis subsp. tularensis FSC033.
Another assay deals with HLA-A*26:01. In words: IEDB peptide-MHC binding, purified MHC/competitive/fluorescence; filed as Kd, often an IC50 or EC50 that approximates it; ≥ and ≤ were set here for values at or beyond the usual limits of such assays. As to conditions: source organism: Francisella tularensis subsp. tularensis FSC198.
The target of a further assay is HLA-A*80:01. As to the kind of experiment: IEDB peptide-MHC binding, purified MHC/direct/fluorescence; filed as Kd, often an IC50 or EC50 that approximates it; ≥ and ≤ were set here for values at or beyond the usual limits of such assays. As to conditions: source organism: Mus musculus.
The target in assay [2] is HLA-A*29:02. As to the kind of experiment: IEDB peptide-MHC binding, purified MHC/competitive/fluorescence; filed as Kd, often an IC50 or EC50 that approximates it; ≥ and ≤ were set here for values at or beyond the usual limits of such assays. Particulars: source organism: Homo sapiens.
Another assay deals with HLA-C*14:02. The description is as above.
A further assay has as its target HLA-A*01:01. Described as above. As to conditions: source organism: Homo sapiens.
The target of the next assay is HLA-C*06:02. The description is as above. As to conditions: source organism: Homo sapiens.
The target of a further assay is HLA-C*05:01. In words: IEDB peptide-MHC binding, purified MHC/direct/fluorescence; filed as Kd, often an IC50 or EC50 that approximates it; ≥ and ≤ were set here for values at or beyond the usual limits of such assays. As to conditions: source organism: Bacillus anthracis str. A2012.
The target in the next assay is HLA-C*07:02. Described as above. Particulars: source organism: Bacillus anthracis str. A2012.
A further assay deals with HLA-B*27:20. As to the kind of experiment: IEDB peptide-MHC binding, purified MHC/competitive/fluorescence; filed as Kd, often an IC50 or EC50 that approximates it; ≥ and ≤ were set here for values at or beyond the usual limits of such assays. Particulars: source organism: Bacillus anthracis str. A2012.
In a further assay the target is HLA-B*15:02. The assay is described as above. As to conditions: source organism: Bacillus anthracis str. A2012.
Where [3] appears, read: source organism: Influenza A virus (A/finch/Canada/NS1301/2001(H3N8)).
Where [4] appears, read: source organism: Influenza A virus (A/Fort Monmouth/1/1947-mouse adapted(H1N1)).
Setting [5] is: source organism: Francisella tularensis subsp. tularensis FSC033.
The mark [6] stands for this setting: source organism: Bacillus anthracis str. A2012.

A value given as a limit tells only on which side of the number the result lay.

In general, IC50 refers to the point on the concentration scale where inhibition reaches its midpoint. What is called Kd is the free concentration of one partner at which half of the binding sites on the other are occupied at equilibrium, for simple one-to-one binding. The low end stands for a tighter complex, the high end for a looser complex.

Take GRAVICGKY: in the assay with HLA-B*27:05, the IC50 was 32 nM.
GTFEFTSFF: the dissociation constant Kd was 496 nM in the assay with HLA-B*58:01 (setting [3]); 5.9 nM with HLA-B*15:17; 3660 nM with HLA-C*15:02 (setting [4]); 360 nM with HLA-B*57:01 (setting [3]); at least 5000 nM with HLA-B*45:06 (setting [4]); 23.8 nM with HLA-A*32:07. For the same sequence, the Kd with HLA-A*32:15 was 893 nM; in the assay with HLA-A*68:23 it was 5.7 nM; with HLA-B*15:42 (setting [4]), at least 5000 nM; with HLA-B*83:01 (setting [4]), at least 5000 nM.
LLLDVPTAAVQA had an IC50 in the assay with HLA-A*02:01 of 1890 nM.
In the assay with HLA-B*35:01, LPAKFLEGF displayed an IC50 of 700 nM.
As for NTIEELSGY, the Kd with HLA-B*40:01, with HLA-A*24:03, with HLA-B*58:01 (setting [5]), with HLA-B*07:02, with HLA-A*02:19 and with HLA-A*02:50 was at least 20000 nM each time. Further, the Kd in the assay with HLA-A*29:02 [1] was 28 nM; with HLA-B*44:02, at least 20000 nM; with HLA-A*30:01, at least 20000 nM; with HLA-B*51:01 it was at least 20000 nM; with HLA-B*57:01 (setting [5]), at least 20000 nM; in the assay with HLA-A*23:01 it was at least 20000 nM. Moreover, the Kd with HLA-B*18:01 is at least 20000 nM; in the assay with HLA-A*26:01, 0.6 nM.
On to TFMDHVLRY, for which the Kd was 109 nM in the assay with HLA-A*80:01; at least 5000 nM in the assay with HLA-B*45:06 (source organism: Homo sapiens); at most 0.1 nM with HLA-A*29:02 [2]; 0.4 nM with HLA-C*14:02 (source organism: Homo sapiens); 1400 nM in the assay with HLA-A*01:01; 663 nM with HLA-C*06:02. In addition, the Kd in the assay with HLA-B*15:42 (source organism: Homo sapiens) and with HLA-B*83:01 (source organism: Homo sapiens) was at least 5000 nM throughout.
Take WMYYPRSPV: the Kd was at least 20000 nM with HLA-C*15:02 (setting [6]); at least 20000 nM with HLA-C*05:01; 667 nM in the assay with HLA-C*07:02; 0.2 nM in the assay with HLA-B*27:20; at least 5000 nM with HLA-B*45:06 (setting [6]); 6.8 nM with HLA-C*14:02 (setting [6]). For the same sequence, the values for the Kd in the assay with HLA-B*15:02, with HLA-B*15:42 (setting [6]) and with HLA-B*83:01 (setting [6]) were 391 nM, at least 5000 nM and at least 5000 nM, respectively.

The values above are taken from the Immune Epitope Database (IEDB).
